Results taken from PMC12495166, “Enhanced solid tumor cell targeting by a neoepitope-encoding oncolytic measles virus combined with CAR therapy” (Molecular Therapy Oncology, 2025).

Experiments:
[1] = target: T1, MICB-derived octapeptide VLQSQRTD (soluble) (Homo sapiens); test: SPR; antibodies (2 μg/mL) immobilised on an IgG-capture sensor chip; peptides as analyte, 0.5-100 nM octapeptide or 1-200 μM 13-aa peptide; single-cycle kinetics; HBS-EP pH 7.4, 30 μL/min; Sierra SPR-24 Pro; conditions: both partners purified
T1 construct: stalk octapeptide starting at position V302 and ending N-terminally of the annotated transmembrane domain; also called immunization peptide
T1 chain: VLQSQRTD

[2] = target: T2, MICB-derived octapeptide VLQSQRTD (soluble) (human); test: SPR
T2 peptide: VLQSQRTD

B1: monoclonal antibody clone 12F7 (antibody, V domains shown)
VH: QVQLQQSGAELVRPGTSVKVSCKASGYAFTNYLIEWIKQRPGQGLEWIGVINPRSGGTNYNEKFKGKATLTADKSSITVYMQLSSLTSDDSAIYFCVRSESYGDYGAWFAYWGQGTLVTVSA
VL: DIVLTQSPASLAVSLGQRATISCRASESVDSYGNSFMHWYQQKPGQPPKLLIDRASNRESGIPARFSGSGSRTDFTLTINPVEADDVATYYCQQSNEDPFTFGSGTKLEIK
notes: variable heavy domain of clone 12F7; constant region of the murine heavy chain; variable light domain of clone 12F7; constant region of the murine light chain; also called 12-F7-C12-E3; mAb 12F7; source: mouse hybridoma (ProteoGenix), purified by protein A/G
B1 was tested, and the Kd [1] was 3.85 nM and the koff [2] was 0.00536 s⁻¹.
